Among the data in patent publication US20170022269A1 are relation between recognition of Aβ(20-42) globulomer and the respective Aβ form and antibody bound to fibrils [%] values, retold here.

Where only a bound is given, the exact number is not on record here.

One test concerns the target Aβ(1-40) monomer (human). Put plainly: dot blot densitometry, antibody 0.2 µg/ml; column Aβ(1-40) monomer, 0.1% NaOH.
Test [1] concerns the target Aβ(1-42) fibrils (human) (UniProt P05067). Briefly: co-pelleting with Aβ(1-42) fibrils, SDS-PAGE, optical density of the heavy chain in pellet / (pellet + supernatant).
The target is the same in test [2]. Briefly: dot blot densitometry, antibody 0.2 µg/ml; column Aβ(1-42) fibril.

Sequence of Aβ(1-42) fibrils (human) (P05067 672-713): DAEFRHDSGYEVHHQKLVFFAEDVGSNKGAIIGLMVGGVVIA
Sequence of Aβ(1-40) monomer (human) (peptide, as listed by the source): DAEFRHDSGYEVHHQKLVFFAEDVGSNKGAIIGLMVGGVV

B1: monoclonal antibody 3B10 (antibody, part only; not given: light chain, V domains shown, part only)
VH: QVQLQQSGPELVKPGASVKMSCKASGYTFTDYVIHWVKQKPGQGLEWIGYINPYNDGTQYNEKFKGKATLTSDKSSSTVYMELSSLTSEDSTVYYCTVEGGTWDGYFDVWGTGTTVTVSS
Turning to B1, the relation between recognition of Aβ(20-42) globulomer and the respective Aβ form with Aβ(1-40) monomer (human) and with Aβ(1-42) fibrils (human) [2] was above 10000 in each case. The antibody bound to fibrils [%] with Aβ(1-42) fibrils (human) [1] is 5%.
